Measured values reported in patent US20180291082A1 (IMMATICS BIOTECHNOLOGIES, published 2018).

Tests used:
HLA-B*44:02 = target: T1, HLA-B*44:02 (human); test: UV-ligand exchange, anti-b2m ELISA; exchange yield grade (+ >10%, ++ >20%, +++ >50, ++++ >75%)
T1 construct: Peptide-receptive MHC monomer made by UV cleavage of a UV-sensitive peptide
From the text: (§1) Candidate peptides for T cell based therapies according to the present invention were further tested for their MHC binding capacity (affinity). The individual peptide-MHC complexes were produced by UV-ligand exchange, where a UV-sensitive peptide is cleaved upon UV-irradiation, and exchanged with the peptide of interest as analyzed. Only peptide candidates that can effectively bind and stabilize the peptide-receptive MHC molecules prevent dissociation of the MHC complexes. To determine the yield of the exchange reaction, an ELISA was performed based on the detection of the light chain (β2m) of stabilized MHC complexes. The assay was performed as generally described in Rodenko et al. (Rodenko et al., 2006).
(§2) 96 well MAXISorp plates (NUNC) were coated over night with 2 ug/ml streptavidin in PBS at room temperature, washed 4× and blocked for 1 h at 37° C. in 2% BSA containing blocking buffer. Refolded HLA-A*02:01/MLA-001 monomers served as standards, covering the range of 15-500 ng/ml. Peptide-MHC monomers of the UV-exchange reaction were diluted 100-fold in blocking buffer. Samples were incubated for 1 h at 37° C., washed four times, incubated with 2 ug/ml HRP conjugated anti-β2m for 1 h at 37° C., washed again and detected with TMB solution that is stopped with […]. Absorption was measured at 450 nm. Candidate peptides that show a high exchange yield (preferably higher than 50%, most preferred higher than 75%) are generally preferred for a generation and production of antibodies or fragments thereof, and/or T cell receptors or fragments thereof, as they show sufficient avidity to the MHC molecules and prevent dissociation of the MHC complexes.

HLA-A*03:01 = target: T2, HLA-A*03:01 (human); test: as above
T2 construct: Peptide-receptive MHC monomer made by UV cleavage of a UV-sensitive peptide
From the text: as §1, §2

Binder | peptide exchange yield (HLA-B*44:02) [%] | peptide exchange yield (HLA-A*03:01) [%]
ARLTPIPFGL | 10 to 20 | 
KESQLPTVM | 20 to 50 | 
AENLFRAFL | 50 to 75 | 
RLSPNDQYK |  | 20 to 50
DESEKTTKSF | 20 to 50 | 
GEELGFASL | 20 to 50 | 
QEVLLQTFL | > 75 | 
TEVLDSHIHAY | 20 to 50 | 
GTESGTILK |  | 20 to 50
MELLLVNKL | 50 to 75 | 
EEESLLTSF | 50 to 75 | 
LEMPHYSTF | > 75 | 
EEKLIIQDF | 20 to 50 | 
KIKEHVRSK |  | 20 to 50
KENFAGEATL | 20 to 50 | 
TEATMTFKY | 50 to 75 | 
EEAKQVLFL | 20 to 50 | 
AEKDGKLTDY | 20 to 50 | 
AEQPDGLIL | 20 to 50 | 
SESAVFHGF | 50 to 75 | 
KLYPTYSTK |  | 20 to 50
GVIIAKKYFFK |  | 20 to 50

Binder | peptide exchange yield (HLA-B*44:02) [%] | peptide exchange yield (HLA-A*03:01) [%]
GEATLQRIY | 10 to 20 | 
ATMQSKLIQK |  | 50 to 75
EELLHGQLF | 20 to 50 | 
AEETCAPSV | 20 to 50 | 
AENAEYLRV | 20 to 50 | 
FSLAGALNAGFK |  | 20 to 50
TEKEMIQKL | 20 to 50 | 
EEAPLVTKAF | 20 to 50 | 
TEHTQSQAAW | 50 to 75 | 
KMMADYGIRK |  | 50 to 75
SENPETITY | 50 to 75 | 
SEAFPSRAL | 50 to 75 | 
EEFETLKEF | 20 to 50 | 
GEHTSKATL | 20 to 50 | 
KESDGFHRF | 50 to 75 | 
AEIHTAEI | 20 to 50 | 
NEINEKIAPSF | 50 to 75 | 
IIAKKYFFK |  | 20 to 50
HELENHSMY | 20 to 50 | 
STQDTLLIK |  | 20 to 50
NEISTFHNL | 50 to 75 | 
AEHDAVRNAL | 50 to 75 | 

Binder | peptide exchange yield (HLA-B*44:02) [%] | peptide exchange yield (HLA-A*03:01) [%]
DEYLIPQQGF | 50 to 75 | 
ALLGVIIAK |  | 20 to 50
YEVDTVLRY | 20 to 50 | 
GSAALYLLR |  | 20 to 50
RMPPPLPTR |  | 20 to 50
KEFNLQNMGL | 50 to 75 | 
IEALLESSL | 20 to 50 | 
AEKQTPDGRKY | 20 to 50 | 
TTMDQKSLW | 10 to 20 | 
SEPINIIDAL | 20 to 50 | 
AEERAEAKKKF | 20 to 50 | 
SENIVIQVY | 20 to 50 | 
KEITGFLLI | 50 to 75 | 
EEVDVPIKLY | 20 to 50 | 
AEQTGTWKL | 20 to 50 | 
FELPTGAGL | 20 to 50 | 
KIIAPLVTR |  | 20 to 50
AEAVLKTLQEL | 50 to 75 | 
SEVPVARVW | > 75 | 
REAEPIPKM | 20 to 50 | 
LQEEKVPAIY | 10 to 20 | 
